# Reference: the Immune Epitope Database (IEDB)
# Tests used:
# HLA-A*01:01 [1] = assay: IEDB peptide-MHC binding, purified MHC/direct/fluorescence; filed as Kd, often an IC50 or EC50 that approximates it; ≥ and ≤ were set here for values at or beyond the usual limits of such assays
# HLA-A*02:01 [2] = assay: as above
# HLA-A*03:01 [3] = assay: as above
# HLA-A*11:01 = assay: as above
# HLA-A*24:02 = assay: as above
# HLA-B*07:02 = assay: as above
# HLA-B*15:01 [4] = assay: as above
# HLA-B*18:01 [5] = assay: as above
# HLA-B*27:05 = assay: as above
# HLA-B*40:01 = assay: as above
# HLA-B*44:02 = assay: as above
# HLA-B*46:01 [6] = assay: as above
# HLA-B*58:01 [7] = assay: as above
# HLA-A*23:01 = assay: as above
# HLA-A*24:03 = assay: as above
# HLA-A*29:02 = assay: as above
# HLA-A*31:01 = assay: as above
# HLA-A*69:01 [8] = assay: as above
# HLA-A*80:01 = assay: as above; details: source organism: West Nile virus
# HLA-B*48:01 = assay: as above; details: source organism: West Nile virus
# HLA-B*57:01 [9] = assay: as above; details: source organism: West Nile virus
# HLA-A*26:01 [10] = assay: as above; details: source organism: Rickettsia felis URRWXCal2
# HLA-B*08:01 = assay: as above; details: source organism: Rickettsia felis URRWXCal2
# HLA-A*02:03 = assay: as above
# HLA-A*02:11 = assay: as above
# HLA-A*02:12 = assay: as above
# HLA-A*02:16 = assay: as above
# HLA-A*02:19 = assay: as above
# HLA-A*68:02 = assay: as above
# HLA-A*02:01 [11] = assay: IEDB peptide-MHC binding, purified MHC/competitive/fluorescence; filed as Kd, often an IC50 or EC50 that approximates it; ≥ and ≤ were set here for values at or beyond the usual limits of such assays
# HLA-A*26:01 [12] = assay: as above
# HLA-A*69:01 [13] = assay: as above
# HLA-B*15:17 = assay: as above
# HLA-B*18:01 [14] = assay: as above
# HLA-B*39:01 = assay: as above
# HLA-B*46:01 [15] = assay: as above
# HLA-B*51:01 = assay: as above
# HLA-B*57:01 [16] = assay: as above
# HLA-A*01:01 [17] = assay: as above
# HLA-B*15:01 [18] = assay: as above
# HLA-B*58:01 [19] = assay: as above
# HLA-A*03:01 [20] = assay: as above; details: source organism: Salmonella enterica subsp. enterica serovar Typhi
# HLA-B*27:03 = assay: as above; details: source organism: Bacillus anthracis str. A0488
# [21] = source organism: Giardia lamblia ATCC 50803
# [22] = source organism: Burkholderia mallei ATCC 23344
# [23] = source organism: West Nile virus
# [24] = source organism: Rickettsia australis
# [25] = source organism: Bacillus anthracis str. Sterne
# [26] = source organism: Bacillus anthracis str. A2012
# [27] = source organism: Salmonella enterica subsp. enterica serovar Paratyphi B str. SPB7
# [28] = source organism: Salmonella enterica subsp. enterica serovar Typhi
# [29] = source organism: Bacillus cereus 03BB108
# [30] = source organism: Bacillus anthracis str. A0488
sequence,measurement,setting,value
WLKEKHEEL,Kd,HLA-A*01:01 [1]; [21],≥ 20 µM
same,Kd,HLA-A*02:01 [2]; [21],0.304 µM
same,Kd,HLA-A*03:01 [3]; [21],≥ 20 µM
same,Kd,HLA-A*11:01; [21],≥ 20 µM
same,Kd,HLA-A*24:02; [21],≥ 20 µM
same,Kd,HLA-B*07:02; [21],≥ 20 µM
same,Kd,HLA-B*15:01 [4]; [21],0.498 µM
same,Kd,HLA-B*18:01 [5]; [21],≥ 20 µM
same,Kd,HLA-B*27:05; [21],≥ 20 µM
same,Kd,HLA-B*40:01; [21],≥ 20 µM
same,Kd,HLA-B*44:02; [21],≥ 20 µM
same,Kd,HLA-B*46:01 [6]; [21],≥ 20 µM
same,Kd,HLA-B*58:01 [7]; [21],≥ 20 µM
CYRGVRHRK,Kd,HLA-A*23:01; [22],0.41 µM
same,Kd,HLA-A*24:03; [22],1.39 µM
IFQKISFFW,Kd,HLA-A*24:02; source organism: Cryptosporidium parvum Iowa II,0.017 µM
MLRKKQITV,Kd,HLA-A*01:01 [1]; [23],≥ 20 µM
same,Kd,HLA-A*29:02; [23],≥ 20 µM
same,Kd,HLA-A*31:01; [23],≥ 20 µM
same,Kd,HLA-A*69:01 [8]; [23],≥ 20 µM
same,Kd,HLA-A*80:01,≥ 20 µM
same,Kd,HLA-B*18:01 [5]; [23],≥ 20 µM
same,Kd,HLA-B*27:05; [23],≥ 20 µM
same,Kd,HLA-B*40:01; [23],≥ 20 µM
same,Kd,HLA-B*44:02; [23],≥ 20 µM
same,Kd,HLA-B*46:01 [6]; [23],≥ 20 µM
same,Kd,HLA-B*48:01,≥ 20 µM
same,Kd,HLA-B*57:01 [9],≥ 20 µM
same,Kd,HLA-B*58:01 [7]; [23],≥ 20 µM
ATYGTAVNK,Kd,HLA-A*01:01 [1]; [24],≥ 20 µM
same,Kd,HLA-A*02:01 [2]; [24],≥ 20 µM
same,Kd,HLA-A*03:01 [3]; [24],0.0833 µM
same,Kd,HLA-A*11:01; [24],0.0296 µM
same,Kd,HLA-A*24:02; [24],≥ 20 µM
same,Kd,HLA-A*26:01 [10],≥ 20 µM
same,Kd,HLA-A*31:01; [24],0.0371 µM
same,Kd,HLA-A*69:01 [8]; [24],≥ 20 µM
same,Kd,HLA-B*07:02; [24],≥ 20 µM
same,Kd,HLA-B*08:01,≥ 20 µM
same,Kd,HLA-B*15:01 [4]; [24],≥ 20 µM
same,Kd,HLA-B*18:01 [5]; [24],≥ 20 µM
same,Kd,HLA-B*27:05; [24],≥ 20 µM
same,Kd,HLA-B*40:01; [24],≥ 20 µM
same,Kd,HLA-B*44:02; [24],≥ 20 µM
same,Kd,HLA-B*46:01 [6]; [24],≥ 20 µM
same,Kd,HLA-B*58:01 [7]; [24],≥ 20 µM
KKNHWFILK,Kd,HLA-A*02:03; [25],≥ 20 µM
same,Kd,HLA-A*02:11; [25],≥ 20 µM
same,Kd,HLA-A*02:12; [25],≥ 20 µM
same,Kd,HLA-A*02:16; [25],≥ 20 µM
same,Kd,HLA-A*02:19; [25],≥ 20 µM
same,Kd,HLA-A*11:01; [25],0.254 µM
same,Kd,HLA-A*23:01; [25],≥ 20 µM
same,Kd,HLA-A*24:03; [25],≥ 20 µM
same,Kd,HLA-A*29:02; [25],≥ 20 µM
same,Kd,HLA-A*68:02; [25],≥ 20 µM
same,Kd,HLA-A*02:01 [11]; [26],≥ 20 µM
same,Kd,HLA-A*26:01 [12]; [26],≥ 20 µM
same,Kd,HLA-A*69:01 [13]; [26],≥ 20 µM
same,Kd,HLA-B*15:17; [26],≥ 20 µM
same,Kd,HLA-B*18:01 [14]; [26],≥ 20 µM
same,Kd,HLA-B*39:01; [26],≥ 20 µM
same,Kd,HLA-B*46:01 [15]; [26],≥ 20 µM
same,Kd,HLA-B*51:01; [26],≥ 20 µM
same,Kd,HLA-B*57:01 [16]; [26],≥ 20 µM
FSDLLSMAW,Kd,HLA-A*01:01 [17]; [27],0.0014 µM
same,Kd,HLA-B*15:01 [18]; [27],≥ 20 µM
same,Kd,HLA-B*58:01 [19]; [27],0.0024 µM
ASIADILTY,Kd,HLA-A*01:01 [17]; [28],0.764 µM
same,Kd,HLA-A*03:01 [20],≥ 20 µM
same,Kd,HLA-B*15:01 [18]; [28],0.425 µM
same,Kd,HLA-B*58:01 [19]; [28],0.0207 µM
SYMLQGLRK,Kd,HLA-A*02:03; [29],≥ 20 µM
same,Kd,HLA-A*02:11; [29],≥ 20 µM
same,Kd,HLA-A*02:12; [29],≥ 20 µM
same,Kd,HLA-A*02:16; [29],≥ 20 µM
same,Kd,HLA-A*02:19; [29],≥ 20 µM
same,Kd,HLA-A*03:01 [3]; [29],≥ 20 µM
same,Kd,HLA-A*11:01; [29],0.228 µM
same,Kd,HLA-A*23:01; [29],≥ 20 µM
same,Kd,HLA-A*24:03; [29],≥ 20 µM
same,Kd,HLA-A*68:02; [29],≥ 20 µM
same,Kd,HLA-A*02:01 [11]; [30],≥ 20 µM
same,Kd,HLA-A*26:01 [12]; [30],≥ 20 µM
same,Kd,HLA-A*69:01 [13]; [30],≥ 20 µM
same,Kd,HLA-B*15:17; [30],≥ 20 µM
same,Kd,HLA-B*18:01 [14]; [30],≥ 20 µM
same,Kd,HLA-B*27:03,≥ 20 µM
same,Kd,HLA-B*39:01; [30],≥ 20 µM
same,Kd,HLA-B*46:01 [15]; [30],≥ 20 µM
same,Kd,HLA-B*51:01; [30],≥ 20 µM
same,Kd,HLA-B*57:01 [16]; [30],≥ 20 µM
